The text below walks through data of the DeepSol protein solubility set.

The series is described as follows: soluble on expression in E. coli; label from the status in PepcDB or PDB records.
Regarding “GMTSRSPFESFVWQSEIFNCQSNDIDAFYAQLAEEVNRLGLKKNTLGSVDSFAINLYQSASQRSDLPSLLISSGFHGEEAAGPWGMLHFLRGLQPALFERVNLSLLPLVNPTGFKAGHRFNRFGENPNRGFTLENGKPTPNEHTSLEGKLLLEHAQLLCAASRDGILTCHEDVLMNETYVYSFEPTQTPGRFSLGLRDALGQYFKLAKDGFIDECPVTDGVIFNHFDTSFEAFLVRSGAKLAACSETPGQEDFDRRVQANSAAMGQFIAHCAPIL”, the “soluble on expression in E. coli” value is given as “soluble”. The value for “GMYEEWKIVKREAPILGNDQLIENIWKMKREDSPYDIISLHKVNLIGGGNDAVLILPGTWSSGEQLVTISWNGVHYTIPDYRKSIVLYLARNGFNVYTIDYRTHYVPPFLKDRQLSFTANWGWSTWISDIKEVVSFIKRDSGQERIYLAGESFGGIAALNYSSLYWKNDIKGLILLDGGPTKHGIRPKFYTPEVNSIEEMEAKGIYVIPSRGGPNNPIWSYALANPDMPSPDPKYKSISDFLMDSLYVTGSANPYDYPYSKKEDMFPILASFDPYWPYRLSLERDLKFDYEGILVPTIAFVSERFGIQIFDSKILPSNSEIILLKGYGHLDVYTGENSEKDVNSVVLKWLSQQR” was “soluble”.

For “GNGIPPYAGAGDPARFTFNIVQNAKYWDKEHQYESLSDIRLHKFNAPAPGTFDFDESPVDGKKLELVSSKKIGFDGKFAGIAHDGEQFGLVTQDGSLFFTKDFDKATSFAHLDVPNGSDIHNTVDAAFFEPGGLAGIAQNKTLYGALVTKDVDDYIAWKDFLESSGDVMPLFDSKGRPELRTIRARMQYTMSVASDAKSDTFITVSVPHERAEQIVVSEFSKKDNKLVREGVLDGDYYPVGADMRGDVLYLLSKQHNCLVRVNMKDFTVKDAANLPVEGSDLAIVKDRAYILDGDTVHEVKL”, the “soluble on expression in E. coli” value is listed as “not soluble”.

On to “GPGMATEEMKKLATVMAIGTANPPNCYYQADFPDFYFRVTNSDHLINLKQKFKRLCENSRIEKRYLHVTEEILKENPNIAAYEATSLNVRHKMQVKGVAELGKEAALKAIKEWGQPKSKITHLIVCCLAGVDMPGADYQLTKLLDLDPSVKRFMFYHLGCYAGGTVLRLAKDIAENNKGARVLIVCSEMTTTCFRGPSETHLDSMIGQALFGDGAAAVIVGADPDLTVERPIFELVSTAQTIVPESHGAIEGHLLESGLSFHLYKTVPTLISNNIKTCLSDAFTPLNISDWNSLFWIAHPGGPAILDQVTAKVGLEKEKLKVTRQVLKDYGNMSSATVFFIMDEMRKKSLENGQATTGEGLEWGVLFGFGPGITVETVVLRSVPVIS”, for which the “soluble on expression in E. coli” value is given as “soluble”. Regarding “GPGSMAAGNSISVKVDVPSQVKGQGTLEMSYYIYPITMRLPGFMSDARFNRRYTDFETLRGQLCATYWYCIVPPIPEKESVQDKLGKLPRMVASAKETTASEGDLLEYRRISLRRFLQRLAYHPILGKSDLLQKFTNDNEWRQCIRDPVKPPR”, the “soluble on expression in E. coli” value is recorded as “not soluble”. On to “GPGSMADSIKKHFQQENEVKDTGCMTSALSYLPIYINTDKLPENMLVGAPLFYPPQMAVLPLSWTDAVGFERSCFITCEGPFPHMTANGKDPHDMSFFFLQYMQRVPFMQSTAERGLPIKQLQDVGLLCCTDAFSHIVTDPAERVVVIFGRNGPYFTSLVITPCTMPEKNVVGNIQLANQISLQDLQKLLDACCPTPLVDEIRLAGTSAGTLQGKLHIACRYGNRVVQFTAASALTVRSARDNEDFIFSLEGDVLAQKRIVFDAATIDALISGKTLDELFSCPGPQCMRVSSLVQLIHMEDLTEISHNLGNGASNGDVTREINLKVSGSRLLLSAGEVSVVFHHAHLGVHFPINSHHGVICEPVLTTDLCLMYYPLGSTAALPNAMMRRVRQLPPTWERSLHTDDALRHNALFHFTDWMRGSVPCITCDLSGFRCAQLYEEKDGMSCRTYVVPLAEEIMVLRWETSTCDWEQHLPHLQKFIDTLHLEVPTA”, for which the “soluble on expression in E. coli” value is given as “not soluble”. To “GPGSMAFHPRDAFILHQEQIQRYNEGDEVDTSAEQKVQIELQRLTDSESTVTIAFSHEDHTLGNPLRHVLMQNREVTSAGYAIPHPLEAKMLLHVQSTDYAVEAVAEGLERLASICDETLQSFEDCMHRMRCEGAKQE” belongs “not soluble”.

As to “GPGSMAGAADPRDEDAKAVNAVLRLPEDDFYAVLGLGEAREDATERDIKNAFRRLSKKYHPDVATGDQDSYRLVYQRVQRAYEVLGDRRKRKIYDILGIDGVTRLEKPQQQQQMNPFFAFFGVGQQADAERGKDMVLLMVVPLEDIYRGAAHTSRFAKRKICRACKGTGARSGEDVVKCPHCQGRGRLAQRVQIAPGFVQQVEQVCPHCQGKGTHVAHMCPVCRGKMVLPGEAVLSVDIEEGLPEGHVLTYELEADQAPGQVPGDVLLTVISAPHPVFHRSGNDLYANVSITLKEALLGFKKTLAHLDGHNVELHWDGVMQNTQQVRIAGEGMPRHHVPSERGDLYITYNVLLPEALTAEQRALFQEHFA”, the “soluble on expression in E. coli” value is given as “not soluble”.

As for “GPGSMARITVELLRRRAEHNEGCLSNLKEIALHQQDIEKIDLIGDACRQLEIIYLCNNYISRIEGLRHLKWLKYLNLAVNNITVIDGLQGCEALERLDLTLNFIAEPTSVQTLLANPFLESLHLTGNPCTKTEGYRAYVIHSLPQLKELDGDEIIRAERITARQAEDVVIEVAEEEAVRVREAERIKQEMLAKGIDPFPPKYNDKGERVYGHTPEERLQILHEQQEMERKKREEQSTPQPGSIAALHQELKRQQQPSQRLTAEEERSKFGRLLLRNEPRVPFHMNQDDAAEFVLTVDPGKFISTTLLSVQVEVDVVRVFIKGKLLQVPVEDELAADAAQVQRSTTTGQLKVMVPYAPEVQERRGGARARLRGLREVTEKASSATGTSAASTTPPPTASPPKVAEPPTRSTLLEIEGRMRGSSSPSLSINQPGTTGTLSSSGKNTTTASSGIVKSVKDISPVPSTMKVSADAATLASQSMTAVLTPTTAASSH”, the “soluble on expression in E. coli” value is given as “soluble”.

For “GPGSMEAGGDDLFVINDVEADQMEEVRDARPVEQAQETEADVMESVKGLVPLCVQHAQGPQLSSATFGYDIALMAKRPWAEPGAKLSDYFNYGFNEQSWRVYCAMQEKGEESLLANATAVLQKLELAARPG”, the “soluble on expression in E. coli” value is “soluble”.

In the case of “GPGSMEGERTMKKNKKGSARGDCDGMISVGAKRLLVSVQDKNRRQKHGEFFDELLLVTQKAKRSPQVINIPGKNEVPVLAVGYIARAMGLNLSNVEVSCLVEMVEEKDLASRGFVPADALKEVIVEALMTGIMAPPKAPVKATPSRKKTASTLPPATIKPISVVRDGEEAIYEAFCVLDLSRRGYLEAEEMRHFLRIGGEPFTEEEVEEFITAAADPENGRIYYEEFADVLARE”, the “soluble on expression in E. coli” value was “soluble”. Take “GPGSMFSGSEGSVRTDDTNVEPPPIPKTRGPLLFEGVRLAGGPPRRTPKRSCSRYFSVTRKTTSAGTDECEHAPPGFSLVNTPSTQDVSPSAKMELPCSAAAHYDDDDDDDDIIPSTAPLPTPHPVMHRVLATGQPNGVSRLLPFDEYVVEEVTPRKCSSISADTSGAAPSTPQGTELREVTQVEEQSPLPAVPEMCESPTRFTLGPRLPVNGEKVRMDFYFLQQEVDAWAKPIETTADVEWHKQHLQETRVAMRSLLHELEVLIAREAAEHERLCIARGFSAMESTSDGKCTYAGETDVVSKTRGKEWKQEELETLEAWRVEKGALLAQKSKLLREHQELQYRLRSHLSGSATGRVTPSPNTSVSRSNKSRGDEGNIGGMSTPLDNGVAQLRLEISEMNAKLKKLEDAYKVLHDNQQWRQGEFDDEYGALCRALATATAGEINNRTALQDTIREAEGVRANCLRQGDASLVSLMERGLSEAKAALKCHDTEQYETK”: the “soluble on expression in E. coli” value is reported as “not soluble”. “GPGSMHDLPEGFEFMEHKVVNKDIHAPHENLETLRLTLTRQDEFLLREEPVKCVTVTGTNGEYGIYPGHAYKIVQLNPSPLTVEYTDGTTKKYFVSGGFAHINNEGSCDVNTVECTLLDDLDLAIAEKELAAQQAALGSAKDDKAKSVVEIRISVIEAVIAALKHH”: the “soluble on expression in E. coli” value is given as “soluble”.

As to “GPGSMHSMVRVGLTNGMVLTGRIVEFDAVTMNMKLDAITDMAVLHPAAGEGCGDSAYETNPAALRCCNSVVVRGCHLRYMDFIDEESDNGRGLQELITAVRVVKPSVPQD”, the “soluble on expression in E. coli” value is given as “not soluble”.

Consider “GPGSMIAILFGFTLGTAVGACNRAHYSSYGSSVYIAPLPSNSHNSLAFMDIARYRAGLFTTHQSVCGRVVIELFDSISPVSTTNFRGLCQGKHGTSGTGHKLCYSGTRLLPNECFIRGGDVTFGSAAGGWSIYGRSFREMAKGSSSSSRSSDVKGKGLVYAVGANAQWGSEFLITVDGFTPGEDHILLGQVVEGYDVLQRLQQQSLLPHAKRFIHYRILKAGVLKEAETPNYGKGSAFLRF”, for which the “soluble on expression in E. coli” value is “not soluble”. The value for “GPGSMKERRSVSQSRTSRTGQLRNGGFRESRFRVALMSRCARPSSSGTSHMFAPSSLPSVGQPSYESGVSSMPNISFPTCNDGALSPGDSMYPPSLPQRAKNKRTGQKDKQKRQSTLGSVDSEEEKRSFLASAAAFRRHRRYNNPFTAYCLASDPYDRPREIERQRQFMSCYKRIACRFVAGGKNALDKPTRYMLGDCVARLYKAVAADWPEADPMVVSSAEDLIVVFMNLDAVRNPVTALRYMNALLKRCDVVRAFDLKKVPEGWDVVTEDGHLMYTFRPPWVGERRFLPDQVAVKKSRGR” was “not soluble”; that for “GPGSMKQIAHYFRIKTAKHAVLEAGDNIRELCSVLSFPLIIKHVSGYSSVGMDKSCKVYDMDSLHSRVTRFIEQYQIALVEEFVVGDEATILVCADSTQPDGIRVFPPVMVQFPEGEDFKHFHLKWETYEGMEWRLMPEDDPALSQVLSTARTSFMHMMGGVGYGRVDVRIDRSTHDVVFLEINPNCGVMYPPGQEGSADWILRLTPGFNQREFTLLQIKEALRRNERMQPLFRCVYNPAQGYRMCATRDISAGSPIFEAEGQSVRLYTKPHVKATRGKEEYDQFAQKAWPLGGDGHYYALWDNEPTNWRTFSHSCVPNMNFGPNRSLNLYATRDIARGEELTMDYRLFRDETTPPFQCCCGSECCEGWIAMNGGKLTKEENGNNY” was “not soluble”; that for “GPGSMKVFHFHGTYRALGVRPKDFSLRAETVDGWRTPVLTSDWERHCDVEGIVTPALSSAGNAASALEPKGPVQVVVATFSLPPGSYATSVLREFCIRTTENGQGNDLETEDEYSSCADTMSHDGCQERRNGRRHHRPASRCIVTRSMRICSLCRSLSPLSLLLLTYVM” was “soluble”.

For the sequence “GPGSMLAQCSLFVQPRVFKGLVMRSHAPVACWAASLPWMTQQQRRRSSFASATPAAPSTDAGKGNYFHFFRIAKHPDLDVAALQKKYHNLQRLVHPDQQQVQAQQQQAEAADVAPATSSSPLPFACTSNEAKSSTDVSTYANAAYETLRAPYSRCRYLSRLVKAEEVKGNPLSAAEEEELLVEDDQRTMKAREVRPDAPMSDDFLMEMLAMNELIFAGDSSDEGVRQQWSVLRFDLEDRAVGYFKDAIKSWNDGDMGAFHHIVHEWTYVATALNNLKERMLE”, the “soluble on expression in E. coli” value is given as “not soluble”. The value for “GPGSMLCRVHLRADPHSSSLHNVVHATNAMAAVNQLLGPERSVFVATEVQPQGVGHSCHGIQLPEDAIIAENVRTSMLVPKVRLHILGDAERGIPPVQQVVIWGYETCGCILQTADDLLTHGVRVAVLVDGCASRTKEVHDTAVLQISRWDGLMVTTVPSAVMQLTRSDARFVKPIIQIMKKFAADWCTTQPRPELRDRGGSGDGEKATAASDARAVPSALATATAADAILAANSACCRTEH” was “not soluble”.
